# Measurements taken from patent US10117953B2, “Antibody drug conjugates” (Novartis AG, priority 2013, dated 2018).
# B1: NEG085: anti-cKIT antibody of Table 1; VH SEQ ID NO 82, VL SEQ ID NO 91; derived from 9P3 (antibody, V domains shown)
# VH: EVQLVESGGGLVQPGGSLRLSCAASGFAFSGYYMAWVRQAPGKGLEWVANINYPGSSTYYLDSVKGRFTISRDNAKNSLYLQMNSLRAEDTAVYYCARGDYYGTTYWYFDVWGQGTTVTVSS
# VL: DIQMTQSPSSLSASVGDRVTITCRASQSISSYLNWYQQKPGKAPKLLIYYTSRLQSGVPSRFSGSGSGTDFTLTISSLQPEDFATYYCQQGRRLWSFGGGTKVEIK
# Legend:
# Mo7e cells = test: Mo7e proliferation assay with GM-CSF (SCF-independent); format: cell-based, human; conditions: 10 ng/ml GM-CSF, 5 days
# Procedure: (§1) To evaluate the potential antagonistic properties of the naked antibodies and the ability of the antibody drug conjugates (ADCs) to inhibit the proliferation of a cKIT-expressing cell line, MO7e (DSMZ, Catalog # ACC-104, Braunschweig, Del.) were grown in the presence or absence of cKIT ligand, Stem Cell Factor (SCF), for survival. MO7e cells were grown in either 10 ng/ml human granulocyte-macrophage colony-stimulating factor GM-CSF (R&D Systems Cat#215-GM, Minneapolis, Minn.) or 10 ng/ml human Stem Cell Factor SCF (R&D Systems Cat#255-SC) prior to seeding in 96 well plates (Costar Cat #3904, Corning, Tewksbury, Mass.) at 5000 cells/well in 100 μl dilution medium. A duplicate plate was generated for a day 0 measurement and all plates were incubated in a tissue culture incubator at 37° C. with 5% CO2 overnight. […] Assay plates were shaken gently for 20 min and the resulting luminescence intensity was measured using a Perkin Elmer 1450 Microbeta TriLux® plate reader (Perkin Elmer, Waltham, Mass.). […] Following this incubation period, relative cell viability was determined via the addition of Cell titer Glo reagent as described above. The effect of the ADCs on cell proliferation was calculated using the average of the duplicates as follows: (% Inhibition=(ADC or Ab treated)/(untreated)*100) The % inhibition data was fitted to a 4-parameter logistic equation and IC50 values were determined.
# [1] = tested on: Mo7e cells (SCF-dependent); test: Mo7e proliferation assay in presence of SCF; format: cell-based, human; conditions: 10 ng/ml SCF, 5 days
# Procedure: as §1
# primary human mast cells [2] = test: Mast cell degranulation (β-hexosaminidase release); format: cell-based; conditions: 0.05-100 nM, 90 min
# Procedure: Primary human mast cells were cultured from peripheral human blood according to the methods described by Saito et al., (supra). […] Cells were then centrifuged and the supernatants were transferred into 96-well black-walled plates prior to the addition of the β-hexosaminidase substrate. Following 90 min incubation at 37° C., the reaction was stopped by the addition of tris-base (Sigma, Cat # T1503-500G, pH 12, St. Louis, Mo.) and the fluorescence intensity was recorded on the Envision® plate reader.
# [3] = tested on: cKIT phosphorylation in Mo7e and GIST T-1 cells; test: Western blot for agonistic properties (15 minutes treatment); format: cell-based, human; conditions: 5 ug/ml
# Procedure: To evaluate the potential agonistic properties of cKIT ADCs, 2×10^6 of GIST T-1 (kindly provided by Dr. Takahiro Taguchi, Kochi U., Japan) or Mo7e (DSMZ, ACC-104) cells were serum starved overnight at 37° C. with 5% CO2 (DMEM for GIST T-1 and RPMI for Mo7e supplemented with 0.1% FBS) in 6-well plate (NUNC catalog #14067). […] One well was designated as untreated (UT). Cells were harvested in 1 ml PBS. […] Lysates were then spun down for 40 mins at 12,000 rpm at 4° C. 20 μg of each sample was boiled for 10 min at 75° C. and loaded on a 12-well NuPAGEO 4-12% Bis-Tris gel (Life Technologies, NP0322BOX, Carlsbad, Calif.). After protein transfer to membrane blots, membranes were blocked in TBST-5% milk at room temperature for 1 hour and then probed with primary antibodies overnight at 4° C. Blots were washed in TBST (4×5 mins) on the next day. Blots were incubated in the secondary antibody (goat-anti rabbit-HRP 1:30,000, Santa Cruz) for 1 hr at room temperature. Blots were washed in TBST (4×5 mins) and developed. […]
# Uke-1 cells = test: ADCC activity in vitro (Calcein release, NK3.3 effector cells); format: cell-based, human; conditions: effector to target ratio 20 to 1
# Procedure: In brief, Uke-1 cells were stained with Calcein acetoxy-methyl ester (Calcein-AM; Sigma-Aldrich catalog #17783-5MG, St. Louis, Mo.), washed twice, pipetted into a 96-well microtiterplate (96 well, U-bottomed, clear plastic; Corning Costar, catalog #650 160, Tewksbury, Mass.) at a concentration of 5000 cells per well and pre-incubated for 10 min with a serial dilution of the above mentioned antibodies and proteins (from 50,000 to 0.003 μg per ml) before adding the effector NK3.3 cells for 1 hour in an effector to target ratio of 20 to 1. In order to calculate the antibody specific lysis of the target cells, a parallel incubation of target cells only without antibody or effector cells served as a baseline and negative control, whereas the positive control or maximal lysis or hundred percent specific lysis was determined by lysis of target cells only with a 1% Triton-X 100 solution. […] Following a co-incubation of target and effector cells, the microtiterplate was centrifuged and an aliquot of the supernatant fluid was transferred to another microtiterplate (96 well, flat-bottomed, black with clear bottom; Corning Costar, catalog #3904, Tewksbury, Mass.) and the concentration of free Calcein in solution was determined with a fluorescence counter (Victor 3® multilabel counter, Perkin Elmer, Waltham, Mass.).
# primary human mast cells [4] = test: Mast cell apoptosis (Caspase-Glo 3/7); format: cell-based; conditions: 0.05-100 nM, 1.6 nM rhSCF, 48 h
# Procedure: Primary human mast cells were cultured from peripheral human blood according to the methods described by Saito et al., Nature Protocols 2006; 1(4):2178-2183. […] Following 30 min incubation at RT, luminescence was recorded on the BioTek Synergy plate reader (BioTek, Winooski, Vt.).
molecule,measurement,setting,value
B1,effect on cell proliferation,Mo7e cells,no detrimental effect on cell proliferation
same,inhibition of cell proliferation,[1],do not have this effect
same,mast cell degranulation,primary human mast cells [2],do not induce mast cell degranulation of human primary mast cells ex vivo
same,"downstream signaling (phospho ERK, phospho AKT)",[3],downstream signaling pathways are not affected
same,phosphorylation of cKIT,[3]; absence of ligand (SCF),can mediate phosphorylation of cKIT in the absence of ligand (SCF)
same,ADCC,Uke-1 cells,not able to induce ADCC even at higher concentrations
same,mast cell apoptosis,primary human mast cells [4],do not lead to apoptosis of human primary mast cells ex vivo
